Data set [1] has as its system chick embryo chorioallantoic membrane (CAM). The experiment in a line: Chick embryo chorioallantoic membrane (CAM) assay of VEGF-mediated angiogenesis. It is filed as in vivo, chicken. As to conditions: VEGF165 100 ng. From the text:
The CAM assay was done as described with slight modifications. Fertilized 3-day-old white Leghorn eggs (Sunnyside, Beaver Dam, Wis.) were cracked and embryos with the yolk intact were placed in glass-bottomed Petri dishes. […] Angiogenesis was reported as the angiogenic index (mean number of tertiary branchpoints from experimental conditions minus the mean number of branchpoints from buffer controls with no angiogenic stimulator).

The subject of data set [2] is MDA-MB435 human breast carcinoma cells. The data set is described as follows: Tumors from mice injected with MDA-MB435 cells transfected with TIMP3, von Willebrand factor staining. As to conditions: von Willebrand factor immunostaining; TIMP3-transfected tumor cells. It is filed as in vivo. From the text: Brown reaction product depicts endothelial cells lining the vessels.

For another data set, the system named is PAE-FGFR1 cells. The data set is described as follows: Endothelial cell proliferation in response to bFGF. It is filed as cell-based, porcine. As to conditions: recombinant TIMP3 (1 and 5 μg/ml) or overexpression.
For data set [3], the system named is MS1 mouse endothelial cells. The experiment in a line: MS1 endothelial cells infected with adenovirus expressing WT-TIMP3 or TIMP3Cys1-Ser: apoptosis and [3H]thymidine incorporation. Format: cell-based. As to conditions: MS1 cells infected with wild-type or mutant virus. The protocol:
MS1 mouse endothelial cells\(American Type Culture Collection, Manassas, Va.) were cultured until 80% confluent and infected with adenovirus as described. Cells were infected at 50 or 200 plaque-forming units per cell for 18 h. Medium was then replaced with fresh complete medium and left for 48 h until analysis.
A modified Boyden chamber assay for migration and proliferation assays were carried out as described.

For data set [4], the target named is T1, KDR (Homo sapiens, UniProt P35968).
T1 construct: To determine whether these receptor isoforms represent full-length VEGFR-2; expressed in transfected cells; host or cells: porcine aortic endothelial (PAE) cells
The experiment in a line: VEGF165-induced KDR phosphorylation (immunoprecipitation/immunoblot). It is filed as cell-based. As to conditions: 1 μg/ml; PAE-KDR cells. As to the method:
PDGF-BB-mediated phosphorylation was examined similarly in PAESPDGFR-β cells (anti-PDGFR-β; top right panel). […] PDGF-BB-mediated phosphorylation of PDGFR-β in PAE-PDGFR-β cells overexpressing TIMP3 (top right). KDR protein or PDGFR-β protein was analyzed by both immunoprecipitation and immunoblotting with antibodies specific for KDR (left) or for PDGFR-β (right; A and B, second panels from top). […] Total protein levels of ERK were determined by immunoblotting with antibodies specific for ERK1/2 (anti-ERK1/2; A and B, bottom).
Cell fractions, prepared as described earlier, or immunoprecipitates of the lysates with the indicated antibodies, were subjected to SDS-PAGE. Proteins were detected with horseradish peroxidase-conjugated antibodies specific for either rabbit or mouse IgG (Amersham Pharmacia, Piscataway, N.J.) followed by enhanced chemiluminescence.

The target of data set [5] is T1, KDR. The data set is described as follows: [125I]VEGF binding to the surface of PAE-KDR cells. Particulars: pretreatment with recombinant protein. The protocol:
Radioligand binding is expressed as percent binding and is the mean±s.e.m. of triplicate samples. […] All values are expressed as mean±s.e.m. of triplicate samples. […] Binding is expressed as mean±s.e.m.
Data were analyzed by Scatchard plot analyses.

A further data set deals with T2, VEGF (Homo sapiens, UniProt P15692).
T2 construct: purchased Genentech (gift, not bought)
T2 sequence (P15692 27-191 isoform P15692-4): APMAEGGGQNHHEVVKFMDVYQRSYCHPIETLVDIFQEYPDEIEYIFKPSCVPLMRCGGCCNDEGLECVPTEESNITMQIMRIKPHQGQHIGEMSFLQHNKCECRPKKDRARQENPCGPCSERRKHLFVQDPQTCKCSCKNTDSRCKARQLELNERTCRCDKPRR
The data set is described as follows: Solid-phase direct binding of [125I]VEGF to wells coated with TIMPs.

A further data set addresses T3, KDR-IgG (Homo sapiens, UniProt P35968).
T3 construct: purchased R&D Systems
The experiment in a line: Cross-linking of [125I]TIMP3 to soluble KDR. Format: binding. Particulars: bis(sulfosuccinimidyl)suberate. As to the method: Immunoprecipitation of cell lysates with antibodies specific for TIMP3 was followed by immunoblotting with antibodies specific for KDR (top). As a control for KDR receptor, cell lysates were immunoprecipitated with anti-bodies specific for KDR and probed with antibodies specific for KDR Immunoprecipitation with antibodies specific for KDR and immunoblotting with antibodies specific for TIMP3 (bottom) were carried out on PAE-KDR cells exposed to recombinant TIMP3 or PAE-KDR-vector and PAE-KDR cells overexpressing TIMP3, to confirm the interaction. […] Competition with unlabeled TIMP3 was carried out to ensure specificity. […] (E) In vivo interaction of KDR and TIMP3 in human placenta. Immunoprecipitation using antibodies specific TIMP3 (top) and KDR (bottom) was followed by immunoblotting with antibodies specific for KDR (top) and TIMP3 (bottom).
Ligand-receptor complexes on the cell surface were crosslinked with 0.5 mM disuccinimidyl suberate (Pierce) and analyzed by immunoprecipitation and SDS-PAGE followed by autoradiography. For in vitro assays, radioligand was crosslinked with 250 ng soluble KDR.

The subject of another data set is soluble VEGFR-2. The data set is described as follows: Soluble VEGFR-2 (sKDR) in conditioned medium (ELISA). Format: cell-based, human. As to conditions: WT-TIMP3 cells; data not shown.
Data set [6] deals with PAEKDR cells. The data set is described as follows: VEGF-stimulated proliferation ([3H]thymidine) of transfected PAEKDR cells. It is filed as cell-based, porcine. As to conditions: VEGF 15 ng/ml. As to the method:
Cells were seeded at a density of 5000 cells/well in 24 well culture plates and cultured for 24 h in growth medium. […] High molecular weight DNA was precipitated using 5% trichloroacetic acid at 4° C. for 30 min After two washes with ice-cold H2O, 3H radioactivity was solubilized in 1 N NaOH for 20 min at room temperature, acidified by addition of 2 N HCl, and measured using a liquid scintillation counter. Each sample was assayed in triplicate and the assays were repeated at least twice.

Data set [7] has as its system PAEKDR cells. The experiment in a line: VEGF-stimulated migration (modified Boyden chamber) of transfected PAEKDR cells. Format: cell-based, porcine. As to conditions: VEGF 50 ng/ml. As to the method: A modified Boyden chamber assay was carried out as described previously 34. Briefly, 8.0 μm pore PVPF polycarbonate membranes were pre-coated with 100 μg/ml collagen type I in 0.2 N acetic acid (Cohesion technologies, INC. Pala Alto, Calif.). […] Chamber was then incubated for 4 hrs at 37° C. in a 5% CO2 humidified incubator. Cells remaining on the top of the filter were removed. Cells on the bottom surface of the filter were fixed, stained and mounted. The number of migrating cells per well was counted microscopically.

Here are results for one molecule from US8431396B2, “Anti-angiogenic peptides” (The Cleveland Clinic Foundation, priority 2003, dated 2013).

T1 sequence (P35968 20-1356): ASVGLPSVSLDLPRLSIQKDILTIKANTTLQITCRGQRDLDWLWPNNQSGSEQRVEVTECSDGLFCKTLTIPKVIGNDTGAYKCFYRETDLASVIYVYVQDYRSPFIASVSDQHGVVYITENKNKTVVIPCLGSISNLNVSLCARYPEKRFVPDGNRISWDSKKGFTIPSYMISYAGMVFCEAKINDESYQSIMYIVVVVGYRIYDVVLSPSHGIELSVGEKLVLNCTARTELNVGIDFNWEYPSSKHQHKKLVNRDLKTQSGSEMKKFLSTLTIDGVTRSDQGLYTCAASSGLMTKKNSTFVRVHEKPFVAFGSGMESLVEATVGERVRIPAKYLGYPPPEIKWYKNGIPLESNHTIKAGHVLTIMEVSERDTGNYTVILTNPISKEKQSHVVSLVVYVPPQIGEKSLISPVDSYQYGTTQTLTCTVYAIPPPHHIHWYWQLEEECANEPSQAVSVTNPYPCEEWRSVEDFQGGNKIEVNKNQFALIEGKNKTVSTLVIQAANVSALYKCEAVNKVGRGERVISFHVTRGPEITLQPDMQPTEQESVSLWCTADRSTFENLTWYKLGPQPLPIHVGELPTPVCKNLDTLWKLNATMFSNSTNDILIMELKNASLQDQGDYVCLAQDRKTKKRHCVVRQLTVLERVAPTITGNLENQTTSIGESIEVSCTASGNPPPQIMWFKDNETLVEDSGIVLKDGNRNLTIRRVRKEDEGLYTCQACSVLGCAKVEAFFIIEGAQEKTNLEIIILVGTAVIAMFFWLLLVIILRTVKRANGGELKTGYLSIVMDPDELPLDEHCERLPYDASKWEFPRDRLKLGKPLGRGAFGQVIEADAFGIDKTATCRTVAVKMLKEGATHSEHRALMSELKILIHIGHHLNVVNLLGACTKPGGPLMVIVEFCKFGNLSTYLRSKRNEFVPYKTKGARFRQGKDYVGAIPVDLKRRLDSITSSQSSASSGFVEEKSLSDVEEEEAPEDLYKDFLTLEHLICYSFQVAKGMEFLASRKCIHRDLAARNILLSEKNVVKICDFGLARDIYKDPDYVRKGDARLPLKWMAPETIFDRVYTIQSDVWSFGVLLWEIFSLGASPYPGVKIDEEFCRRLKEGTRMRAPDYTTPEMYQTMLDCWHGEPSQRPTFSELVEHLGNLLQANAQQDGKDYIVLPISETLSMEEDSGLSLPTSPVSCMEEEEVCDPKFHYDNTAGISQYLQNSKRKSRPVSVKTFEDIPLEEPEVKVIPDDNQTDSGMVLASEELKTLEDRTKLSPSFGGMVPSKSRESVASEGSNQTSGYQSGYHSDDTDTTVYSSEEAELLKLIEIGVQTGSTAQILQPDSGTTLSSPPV
T3 sequence (P35968 20-764 limits assumed): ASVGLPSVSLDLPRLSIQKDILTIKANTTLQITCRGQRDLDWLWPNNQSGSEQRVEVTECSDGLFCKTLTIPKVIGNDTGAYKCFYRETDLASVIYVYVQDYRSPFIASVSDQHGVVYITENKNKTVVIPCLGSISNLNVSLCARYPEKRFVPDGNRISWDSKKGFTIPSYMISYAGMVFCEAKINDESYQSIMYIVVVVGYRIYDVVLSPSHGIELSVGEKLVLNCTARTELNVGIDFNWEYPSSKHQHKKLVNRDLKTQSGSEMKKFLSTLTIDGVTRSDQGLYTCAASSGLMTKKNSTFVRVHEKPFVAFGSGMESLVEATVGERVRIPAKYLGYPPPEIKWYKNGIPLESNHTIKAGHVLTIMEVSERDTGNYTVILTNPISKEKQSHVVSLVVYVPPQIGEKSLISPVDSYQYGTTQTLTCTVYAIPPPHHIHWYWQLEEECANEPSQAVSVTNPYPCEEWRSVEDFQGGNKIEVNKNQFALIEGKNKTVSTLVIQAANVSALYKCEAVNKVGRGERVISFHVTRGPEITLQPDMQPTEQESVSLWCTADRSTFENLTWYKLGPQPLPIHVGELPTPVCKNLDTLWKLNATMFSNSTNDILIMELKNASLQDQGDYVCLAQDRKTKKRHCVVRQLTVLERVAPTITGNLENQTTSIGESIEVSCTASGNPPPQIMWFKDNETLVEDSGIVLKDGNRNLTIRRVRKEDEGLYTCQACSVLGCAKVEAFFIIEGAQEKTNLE

B1: TIMP3: tissue inhibitor of metalloproteinases-3; recombinant human form expressed in NSO myeloma cells, or wild-type expressed in transfected cells (protein, listed as Homo sapiens)
chain: MTPWLGLIVLLGSWSLGDWGAEACTCSPSHPQDAFCNSDIVIRAKVVGKKLVKEGPFGTLVYTIKQMKMYRGFTKMPHVQYIHTEASESLCGLKLEVNKYQYLLTGRVYDGKMYTGLCNFVERWDQLTLSQRKGLNYRYHLGCNCKIKSCYYLPCFVTSKNECLWTDMLSNFGYPGYQSKHYACIRQKGGYCSWYRGWAPPDKSIINATDP
On to B1, for which the “CAMs in which VEGF-induced branching and leakage of blood vessels were inhibited” value stood at 75% in data set [1] (0.75 μg/disk, n=8) and 90% in data set [1] ([…], n=10). The “neovascularization of tumors expressing TIMP3 vs control tumors” value in data set [2] is “decrease in neovascularization”. In addition, in the data set on PAE-FGFR1 cells, the “effect on proliferative response to basic fibroblast growth factor (bFGF)” value is on record as “Neither recombinant TIMP3 nor TIMP3 overexpression affected the proliferative response”. In addition, in data set [3], the “apoptosis after adenovirus infection” value was “No apoptosis was observed”. For the same molecule, the “inhibition of VEGF165-induced phosphorylation of KDR” value in the data set with KDR [4] was “strongly inhibited”. Moreover, the “IC50 for inhibition of [125I]VEGF binding to PAE-KDR cells” value with KDR [5] was 3.3 to 4.5 µg/mL. The “direct binding of [125I]VEGF to coated TIMP” value in the data set with VEGF is “did not detect direct binding”. For the same molecule, in the data set with KDR-IgG, the “direct binding of [125I]TIMP3 to KDR-IgG by cross-linking” value was “could be covalently cross-linked to KDR-IgG”. Besides, in the data set with soluble VEGFR-2, the “cleaved sVEGFR-2 in the CM, less than mock cells” value is 10 fold. Besides, the “VEGF-stimulated proliferation of cells expressing TIMP3 variant” value with PAEKDR cells [6] is listed as “dramatic attenuation in the VEGF response”. In the data set with PAEKDR cells [7], the “VEGF-stimulated migration of cells expressing TIMP3 variant” value was “dramatically reduced basal and VEGF-stimulated migration”.
